Results published in the supplement of paper PMC10065799, “High-throughput profiling of sequence recognition by tyrosine kinases and SH2 domains using bacterial peptide display” (eLife, 2023).

Each sequence was assayed against c-Src SH2 (assay: SH2 binding enrichment of the phosphorylated peptide, bacterial display (enrichment ratio); higher = better substrate or ligand; peptides without Tyr show the background).
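Wherever SH2 binding enrichment of the phosphorylated peptide, bacterial display is given: peptide library displayed on the E. coli surface as eCPX fusions, selected cells deep-sequenced, score is each peptide's frequency after selection divided by its frequency in the input.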

Sequence	SH2 binding enrichment
FHIDHYLGKEM [G6PD_Y202_R198H_YF]	0.778
KVKPIYFRTQG [AR_Y916_H918R]	1.51
FIPSNYVAEDR [FRK_Y104_YF]	0.579
GLAKEYTDPET [CSNK1G2_Y195_I196T]	1.1
RMDGKYACSFT [FLNB_Y704_T703K_YF]	0.566
EKQARYEIVVE [CDH5_Y223]	11
QLHRKYCLSPR [HJURP_Y445_E444K]	0.961
KKHIPYKEHKS [CSNK1G1_Y205_R206K]	1.82
LAEMNYVHQDL [EPHB1_Y740_R743Q]	0.445
FLGRDYLETLM [DUS3L_Y610_YF]	0.563
VTQEQYELFCE [CBL_Y368_YF]	0.668
EEKKKYFDAKI [CASP5_Y103_T106A_YF]	0.446
AGQEKYSAMRD [HRAS_Y64_E63K]	0.496
ILDEAYVMAGA [ERBB2_Y772_V777A]	0.543
SQQTYYRVSNM [ABCD1_Y181]	0.636

Next, values leading:

SH2 binding enrichment	Sequence
0.922	QTPVLYAMLDH [MPZ_Y220]
0.535	VPLATYMRIFK [RPL21_Y30_YF]
0.923	WIPIQYLIISE [NOG_Y222_P223L]
0.628	IALNSCHSRNC [IFNGR1_Y397_Y397C]
0.575	GVVVPYEPPEV [TP53_Y220_S215G]
1.6	TGDRPYVCPFD [YY1_Y383]
0.606	AFRHGYFDEEM [PLEC_Y2971_R2969H_YF]
0.918	VDYQPYRKHKY [TEX37_Y28]
1.16	RSHRSYSCQVM [IGLL1_Y192_R189H]
0.418	PAKPRYRARQR [KCNJ11_Y26_E23K]
0.779	GCRSKYVGLWG [KCNQ1_Y184]
0.887	GEFHVYRHLRW [PRKRIP1_Y82_R87W]
2.62	AEDKPYAELWT [MPI_Y46_M51T]
0.591	FGSVMYEFVGK [SLC18A1_Y251]
7.73	FVTSMYNEILM [TRPV1_Y310]
0.443	TDKLFYIYTSG [SLC27A4_Y243]
1.19	LMVFEYMRHGN [NTRK1_Y591_D596N]
0.488	MKALGYFAVVT [OPA1_Y498]

These sequences were tested against Grb2 SH2 (UniProt P62993) in the same assay as above.

Sequence	SH2 binding enrichment
FHIDHYLGKEM [G6PD_Y202_R198H_YF]	1.33
KVKPIYFRTQG [AR_Y916_H918R]	1.63
FIPSNYVAEDR [FRK_Y104_YF]	0.82
GLAKEYTDPET [CSNK1G2_Y195_I196T]	0.873
RMDGKYACSFT [FLNB_Y704_T703K_YF]	0.935
EKQARYEIVVE [CDH5_Y223]	0.856
QLHRKYCLSPR [HJURP_Y445_E444K]	1.09
KKHIPYKEHKS [CSNK1G1_Y205_R206K]	1.89
LAEMNYVHQDL [EPHB1_Y740_R743Q]	0.983
FLGRDYLETLM [DUS3L_Y610_YF]	0.878
VTQEQYELFCE [CBL_Y368_YF]	0.943
EEKKKYFDAKI [CASP5_Y103_T106A_YF]	1.01
AGQEKYSAMRD [HRAS_Y64_E63K]	0.703
ILDEAYVMAGA [ERBB2_Y772_V777A]	0.736
SQQTYYRVSNM [ABCD1_Y181]	0.853

Second part, the sequence after the results:

SH2 binding enrichment	Sequence
0.837	QTPVLYAMLDH [MPZ_Y220]
0.602	VPLATYMRIFK [RPL21_Y30_YF]
1.21	WIPIQYLIISE [NOG_Y222_P223L]
1	IALNSCHSRNC [IFNGR1_Y397_Y397C]
0.614	GVVVPYEPPEV [TP53_Y220_S215G]
0.911	TGDRPYVCPFD [YY1_Y383]
0.832	AFRHGYFDEEM [PLEC_Y2971_R2969H_YF]
0.917	VDYQPYRKHKY [TEX37_Y28]
1.29	RSHRSYSCQVM [IGLL1_Y192_R189H]
0.654	PAKPRYRARQR [KCNJ11_Y26_E23K]
1.01	GCRSKYVGLWG [KCNQ1_Y184]
0.972	GEFHVYRHLRW [PRKRIP1_Y82_R87W]
0.929	AEDKPYAELWT [MPI_Y46_M51T]
0.684	FGSVMYEFVGK [SLC18A1_Y251]
1	FVTSMYNEILM [TRPV1_Y310]
0.677	TDKLFYIYTSG [SLC27A4_Y243]
1.65	LMVFEYMRHGN [NTRK1_Y591_D596N]
0.769	MKALGYFAVVT [OPA1_Y498]

These sequences were tested against SHP2-C SH2 in the same assay as above.

Sequence	SH2 binding enrichment
FHIDHYLGKEM [G6PD_Y202_R198H_YF]	0.787
KVKPIYFRTQG [AR_Y916_H918R]	1.76
FIPSNYVAEDR [FRK_Y104_YF]	0.868
GLAKEYTDPET [CSNK1G2_Y195_I196T]	0.671
RMDGKYACSFT [FLNB_Y704_T703K_YF]	0.638
EKQARYEIVVE [CDH5_Y223]	0.666
QLHRKYCLSPR [HJURP_Y445_E444K]	0.859
KKHIPYKEHKS [CSNK1G1_Y205_R206K]	2.23
LAEMNYVHQDL [EPHB1_Y740_R743Q]	0.923
FLGRDYLETLM [DUS3L_Y610_YF]	0.96
VTQEQYELFCE [CBL_Y368_YF]	0.747
EEKKKYFDAKI [CASP5_Y103_T106A_YF]	0.672
AGQEKYSAMRD [HRAS_Y64_E63K]	0.639
ILDEAYVMAGA [ERBB2_Y772_V777A]	0.857
SQQTYYRVSNM [ABCD1_Y181]	0.789

Now from value to sequence:

SH2 binding enrichment	Sequence
2.71	QTPVLYAMLDH [MPZ_Y220]
0.546	VPLATYMRIFK [RPL21_Y30_YF]
1.12	WIPIQYLIISE [NOG_Y222_P223L]
0.645	IALNSCHSRNC [IFNGR1_Y397_Y397C]
0.636	GVVVPYEPPEV [TP53_Y220_S215G]
0.712	TGDRPYVCPFD [YY1_Y383]
0.614	AFRHGYFDEEM [PLEC_Y2971_R2969H_YF]
1.11	VDYQPYRKHKY [TEX37_Y28]
0.993	RSHRSYSCQVM [IGLL1_Y192_R189H]
0.399	PAKPRYRARQR [KCNJ11_Y26_E23K]
1.05	GCRSKYVGLWG [KCNQ1_Y184]
0.838	GEFHVYRHLRW [PRKRIP1_Y82_R87W]
1.11	AEDKPYAELWT [MPI_Y46_M51T]
0.445	FGSVMYEFVGK [SLC18A1_Y251]
0.941	FVTSMYNEILM [TRPV1_Y310]
1.75	TDKLFYIYTSG [SLC27A4_Y243]
1.89	LMVFEYMRHGN [NTRK1_Y591_D596N]
0.752	MKALGYFAVVT [OPA1_Y498]

What follows are sequences tested on AncSZ (assay: phosphorylation enrichment, bacterial display (enrichment ratio); higher = better substrate or ligand; peptides without Tyr show the background).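 Further: 11-residue human phosphosite peptides and single-mutation variants displayed on the E. coli surface, counted by deep sequencing, each peptide's frequency after selection divided by its frequency in the unselected input library; frequency after pTyr selection over input frequency; kinase dosed for 20-30% of maximal phosphorylation in three min.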

Sequence	phosphorylation enrichment
QTPVLYAMLDH [MPZ_Y220]	0.853
VPLATYMRIFK [RPL21_Y30_YF]	0.733
WIPIQYLIISE [NOG_Y222_P223L]	1.2
FHIDHYLGKEM [G6PD_Y202_R198H_YF]	0.556
KVKPIYFRTQG [AR_Y916_H918R]	0.701
FIPSNYVAEDR [FRK_Y104_YF]	0.74
IALNSCHSRNC [IFNGR1_Y397_Y397C]	0.48
GVVVPYEPPEV [TP53_Y220_S215G]	0.892
TGDRPYVCPFD [YY1_Y383]	1.04
AFRHGYFDEEM [PLEC_Y2971_R2969H_YF]	1.13
GLAKEYTDPET [CSNK1G2_Y195_I196T]	1.28
RMDGKYACSFT [FLNB_Y704_T703K_YF]	1.38
VDYQPYRKHKY [TEX37_Y28]	0.627
RSHRSYSCQVM [IGLL1_Y192_R189H]	0.609
EKQARYEIVVE [CDH5_Y223]	0.909
QLHRKYCLSPR [HJURP_Y445_E444K]	0.677
PAKPRYRARQR [KCNJ11_Y26_E23K]	1.08

Sequence	phosphorylation enrichment
GCRSKYVGLWG [KCNQ1_Y184]	0.61
KKHIPYKEHKS [CSNK1G1_Y205_R206K]	1.53
LAEMNYVHQDL [EPHB1_Y740_R743Q]	1.12
GEFHVYRHLRW [PRKRIP1_Y82_R87W]	1
AEDKPYAELWT [MPI_Y46_M51T]	1.17
FGSVMYEFVGK [SLC18A1_Y251]	2.6
FVTSMYNEILM [TRPV1_Y310]	1.16
FLGRDYLETLM [DUS3L_Y610_YF]	0.849
VTQEQYELFCE [CBL_Y368_YF]	1.4
TDKLFYIYTSG [SLC27A4_Y243]	1.5
LMVFEYMRHGN [NTRK1_Y591_D596N]	0.998
EEKKKYFDAKI [CASP5_Y103_T106A_YF]	0.798
AGQEKYSAMRD [HRAS_Y64_E63K]	0.574
ILDEAYVMAGA [ERBB2_Y772_V777A]	1.48
SQQTYYRVSNM [ABCD1_Y181]	0.703
MKALGYFAVVT [OPA1_Y498]	1.25
